Results on two molecules are retold here after patent US20240190935A1 (EAST CAROLINA UNIVERSITY, published 2024).

To fix the notation:
T1: human sCD25(C213T) (aa1-240 of NP_000408 with C213T, C-terminal 8-histidine) (human, UniProt P01589 22-240)
T1 construct: range 1-240; Secreted from stably transfected HEK293F cells and purified on Ni-NTA; the inserted alanine shifts positions in the construct by one; No signal peptide cleavage site is stated; also called hCD25-C213T
T1 sequence: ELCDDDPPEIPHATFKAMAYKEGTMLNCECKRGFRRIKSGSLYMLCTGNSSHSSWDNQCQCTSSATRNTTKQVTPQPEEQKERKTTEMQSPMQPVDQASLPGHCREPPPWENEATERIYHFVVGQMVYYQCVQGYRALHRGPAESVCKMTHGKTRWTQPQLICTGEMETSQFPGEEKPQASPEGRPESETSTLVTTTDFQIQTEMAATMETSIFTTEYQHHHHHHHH

T2: human truncated-sCD25 (aa1-212 of NP_000408, C-terminal 8-histidine) (human, UniProt P01589 22-212)
T2 construct: range 1-212; Secreted from stably transfected HEK293F cells and purified on Ni-NTA; No signal peptide cleavage site is stated; also called hCD25-trunc
T2 sequence: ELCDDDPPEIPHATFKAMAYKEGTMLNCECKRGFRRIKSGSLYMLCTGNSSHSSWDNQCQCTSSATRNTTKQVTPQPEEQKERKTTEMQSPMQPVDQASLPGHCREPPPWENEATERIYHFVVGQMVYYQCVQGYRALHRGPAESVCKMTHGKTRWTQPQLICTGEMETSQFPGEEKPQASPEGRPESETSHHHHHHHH

B1: mouse sCD25 (murine soluble CD25, aa1-208 of NP_032393, C-terminal 8-histidine) (receptor)
chain: ELCLYDPPEVPNATFKALSYKNGTILNCECKRGFRRLKELVYMRCLGNSWSSNCQCTSNSHDKSRKQVTAQLEHQKEQQTTTDMQKPTQSMHQENLTGHCREPPPWKHEDSKRIYHFVEGQSVHYECIPGYKALQRGPAISICKMKCGKTGWTQPQLTCVDEREHHRFLASEESQGSRNSSPESETSHHHHHHHH
notes: range 1-208; Secreted from stably transfected HEK293F cells and purified on Ni-NTA; The construct is defined as aa1-208, signal peptide included; also called murine sCD25; mCD25
B2: recombinant murine IL-2 (accession number NP_032392) (ligand, mouse, UniProt P04351 21-169, looked up)
chain: APTSSSTSSSTAEAQQQQQQQQQQQQHLEQLLMDLQELLSRMENYRNLKLPRMLTFKFYLPKQATELKDLQCLEDELGPLRHVLDLTQSKSFQLEDAENFISNIRVTVVKLKGSDNTFECQFDDESATVVDFLRRWIAFCQSIISTSPQ
notes: also called mouse IL-2; mIL-2

Assay [1] addresses T3, anti-mouse CD25-BV421 mAb (clone PC61).
T3 construct: Commercial fluorochrome-conjugated mAb (Biolegend), mouse-specific; also called BV421-PC61; anti-mouse CD25 mAb
Kind of assay: Flow cytometry competition: mouse sCD25 (1-1000 nM) pre-incubated with BV421-PC61 for 1 h at 4 °C, then HEK cells expressing full-length mouse CD25 added; blocked: binding of the mAb to CD25 on the cells. As to the method: Then, HEKs expressing full-length transmembrane mouse CD25 or human CD25 were added to each tube and incubated for 1 hour at 4° C. and subsequently washed with HBSS two times prior to analyzing surface bound anti-CD25 mAbs by flow cytometry.
(In flow cytometry, cells or beads pass a laser one at a time.)

Assay [2] deals with T1, human sCD25(C213T) (aa1-240 of …. Kind of assay: SPR (Biacore T200), steady-state fit; mouse IL-2 (1000-3.9 nM) injected over immobilized human sCD25(C213T); mean ± SD of three injection series [cont'd.) B]. As to the method: (§1) SPR experiments were performed on a Biacore T200 instrument at 25° C. using a flowrate of 30 μL min-1 in a running buffer of HBS-T (10 mM HEPES (pH 7.3), 140 mM NaCl, 0.005% Tween 20). Proteins were immobilized on a CMD200 biosensor chip (Xantec Bioanalytics) using ethyl-3-(3-dimethylaminopropyl)-carbodiimide (EDC)/N-hydroxysuccinimide/(NHS) coupling chemistry. […] A reference surface was created by EDC/NHS activation followed by a seven-minute injection of 1 M ethanolamine (pH 8.5). […] Surfaces were regenerated to baseline by injection of 2M NaCl for three minutes. Each injection series was performed in triplicate. The resulting reference-corrected sensorgrams were blank subtracted using an injection of HBS-T and fit to a steady-state model of binding using T200 Evaluation software. KD values and Rₘₐₓ values are reported as the mean±standard deviation (SD). All figures were prepared using Graphpad Prism 8.0.
Background: Surface plasmon resonance follows binding to a sensor surface in real time, without labels.

For assay [3], the target named is B1. Kind of assay: SPR (Biacore T200), steady-state fit; mouse IL-2 (1000-3.9 nM) injected over immobilized mouse sCD25; mean ± SD of three injection series. The method, then:
as §1

Assay [4] deals with T2, human truncated-sCD25 (aa1-212 of …). Kind of assay: SPR (Biacore T200), steady-state fit; mouse IL-2 (1000-3.9 nM) injected over immobilized human truncated-sCD25; mean ± SD of three injection series [cont'd.) C]. As to the method: as §1

For the molecule B1, in assay [1], the “IC50 (read off the curve)” value was about 5 nM.

With B2, the figures for the equilibrium dissociation constant (Kd) in assay [2], in assay [3] and in assay [4] were 430 nM, 250 nM and 740 nM, respectively.
